Data published in patent US20220411536A1 (NUMAB THERAPEUTICS, published 2022).

T1: recombinant human IL-23R (custom-made by Trenzyme) (human, UniProt Q5VWK5 24-355)
T1 sequence (looked up): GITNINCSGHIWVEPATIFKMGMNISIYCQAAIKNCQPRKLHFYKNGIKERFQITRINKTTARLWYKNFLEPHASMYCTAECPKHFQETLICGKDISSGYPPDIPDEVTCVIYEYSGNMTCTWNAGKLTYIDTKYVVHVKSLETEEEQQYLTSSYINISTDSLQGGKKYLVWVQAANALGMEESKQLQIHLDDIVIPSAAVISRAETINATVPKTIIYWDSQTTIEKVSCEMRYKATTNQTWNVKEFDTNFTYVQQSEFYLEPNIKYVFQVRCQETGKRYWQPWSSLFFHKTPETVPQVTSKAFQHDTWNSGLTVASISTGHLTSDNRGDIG


Assays:
[1] = molecular target: T2, human PD-L1 expressed on cells (CHO-PD-L1, HCC1954, HCC827) (human, UniProt Q9NZQ7 19-290); assay: flow cytometry competition in presence of human SA: binding of biotinylated PD-1 to HCC1954 cells (Her2+++, PD-L1); blocked ligand PD-1 [HCC1954]
T2 construct: whole, on cells; also called hPD-L1; PD-L1 expressing cells

[2] = molecular target: T2, human PD-L1 expressed on cells …; assay: flow cytometry with human SA, inhibition of PD-1 binding to HCC1954 cells
[3] = molecular target: CD137 on transgenic NF-kB Jurkat reporter cells (Homo sapiens (Human), UniProt Q07011 24-255); assay: cell-based or functional assay
human serum albumin = molecular target: T3, human serum albumin (human, UniProt P02768 25-609); assay: SPR, immobilised HSA, pH 5.5
T3 construct: also called HSA; human SA

[4] = molecular target: T4, recombinant human CD3E ECD (SinoBiological, cat. 10977-H08H) (human, UniProt P07766 23-126); assay: SPR, immobilised CD3e ECD, two-state model
T4 construct: extracellular domain; bought protein; also called CD3s
T4 sequence (P07766 23-126): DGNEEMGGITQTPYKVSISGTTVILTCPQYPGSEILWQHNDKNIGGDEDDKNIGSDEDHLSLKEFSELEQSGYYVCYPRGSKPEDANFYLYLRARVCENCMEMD

[5] = molecular target: T5, Fc-tagged human PD-L1 extracellular domain (SinoBiological, cat. 10084-H02H) (human, UniProt Q9NZQ7 19-238); assay: SPR, captured Fc-PD-L1 ECD
T5 construct: extracellular domain; also called hPD-L1; not shown: Fc tag of the bought protein

[6] = molecular target: T6, recombinant human Her2 ECD (SinoBiological, cat. 10004-HCCH) (human, UniProt P04626 23-652); assay: SPR, immobilised Her2 ECD
T6 construct: extracellular domain; bought protein

mouse serum albumin = molecular target: T7, mouse serum albumin (mouse, UniProt P07724 25-608); assay: SPR, immobilised MSA, pH 5.5
T7 construct: also called MSA; mouse SA
T7 sequence (P07724 25-608 limits assumed): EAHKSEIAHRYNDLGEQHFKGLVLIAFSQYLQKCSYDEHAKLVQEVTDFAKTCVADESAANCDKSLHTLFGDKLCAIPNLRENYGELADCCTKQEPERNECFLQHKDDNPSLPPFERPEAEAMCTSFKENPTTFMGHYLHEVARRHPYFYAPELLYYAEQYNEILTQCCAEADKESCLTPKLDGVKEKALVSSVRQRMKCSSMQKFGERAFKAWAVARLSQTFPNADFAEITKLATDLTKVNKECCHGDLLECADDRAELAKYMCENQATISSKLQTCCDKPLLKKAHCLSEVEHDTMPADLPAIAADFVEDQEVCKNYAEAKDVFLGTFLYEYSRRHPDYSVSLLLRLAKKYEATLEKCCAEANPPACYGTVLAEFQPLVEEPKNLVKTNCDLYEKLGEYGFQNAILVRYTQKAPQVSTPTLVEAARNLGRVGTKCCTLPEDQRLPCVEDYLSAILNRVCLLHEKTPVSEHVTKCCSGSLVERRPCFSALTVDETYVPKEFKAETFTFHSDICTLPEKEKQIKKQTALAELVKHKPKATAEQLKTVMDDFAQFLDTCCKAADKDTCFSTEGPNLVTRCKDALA

[7] = molecular target: T4, recombinant human CD3E ECD …; assay: SPR, immobilised CD3e ECD, two-state model (kd1)
[8] = molecular target: T1, recombinant human IL-23R (custom-made …); assay: SPR, immobilised IL-23R
[9] = molecular target: T8, CD3e on Jurkat PD-1 NFAT reporter T cells or on T cells of human PBMCs (human, UniProt P07766 23-207); assay: cell-based or functional assay
[10] = molecular target: T4, recombinant human CD3E ECD …; assay: SPR, immobilised CD3e ECD, two-state model (ka1)
[11] = molecular target: T4, recombinant human CD3E ECD …; assay: SPR, immobilised CD3e ECD, two-state model (kd1); kd1, first step of the two-state fit
[12] = molecular target: T8, CD3e on Jurkat PD-1 NFAT reporter T …; assay: cell-based or functional assay; remark: listed apart in the source
[13] = molecular target: T4, recombinant human CD3E ECD …; assay: SPR, immobilised CD3e ECD, two-state model; overall KD of the two-state fit
[14] = molecular target: T4, recombinant human CD3E ECD …; assay: SPR, immobilised CD3e ECD, two-state model (ka1); ka1, first step of the two-state fit

Kd (human serum albumin) [nM]	koff (human serum albumin) [s⁻¹]	kon (human serum albumin) [M⁻¹ s⁻¹]	KD1 [4] [nM]	kd2 [4] [s⁻¹]	binding result [5]	Kd [6] [nM]	koff [6] [s⁻¹]	kon [6] [M⁻¹ s⁻¹]	Kd (mouse serum albumin) [nM]	koff (mouse serum albumin) [s⁻¹]	kon (mouse serum albumin) [M⁻¹ s⁻¹]	Kd [8] [nM]	koff [8] [s⁻¹]	kon [8] [M⁻¹ s⁻¹]	IC50, NFAT reporter, HCC1954 cells [9] [nM]	rel. max. activation vs PRO1497, NFAT reporter, HCC1954 cells [9] [%]	Binder	other results
–	–	–	–	–	–	–	–	–	–	–	–	–	–	–	–	–	PRO1993 (multispecific antibody) chain 1: DIQMTQSPSSLSASVGDRVTITCKASQDVSIGVAWYQQKPGKAPKLLIYSASYRYTGVPSRFSGSGSGTDFTLTISSLQPEDFATYYCQQYYIYPYTFGCGTKVTVLGGGGGSGGGGSGGGGSGGGGSEVQLVESGGGLVQPGGSLRLSCAASGFTFTDYTMDWVRQAPGKCLEWVADVNPNSGGSIYNQRFKGRFTLSVDRSKNTLYLQMNSLRAEDTAVYYCARNLGPSFYFDYWGQGTLVTVSSGGGGSGGGGSDVVMTQSPSSLSASVGDRVTITCQASQIISSRSAWYQQKPGQPPKLLIYQASKLASGVPSRFSGSGSGTDFTLTISSLQPEDFATYYCQCTYIDSNFGAFGTGTKLTVLGGGSGGSDIQMTQSPSSLSASVGDRVTITCQASQSISNRLAWYQQKPGKAPKLLIYSASTLASGVPSRFSGSGSGTDFTLTISSLQPEDFATYYCQSTYYGNDGNAFGCGTKVTVLG chain 2: DIQMTQSPSSLSASVGDRVTITCQASQSINDYLAWYQQKPGKAPKLLIYKASTLASGVPSRFSGSGSGTDFTLTISSLQPEDFATYYCQAAYIITDIDNVFGTGTKVTVLGGGGGSGGGGSGGGGSGGGGSQVQLQESGPGLVKPSETLSLTCKVSGFSFSSGYDMCWIRQPPGKGLEWIGCVVAGSVDITYYASWAKGRVTISVDSSKNQFSLKLSSVTAADTAVYYCARKDAYSDAFNLWGQGTLVTVSSGGGGSGGGGSEVQLVESGGGLVQPGGSLRLSCAASGFSFSANYYPCWVRQAPGKCLEWIGCIYGGSSDITYDANWTKGRFTISRDNSKNTVYLQMNSLRAEDTAVYYCARSAWYSGWGGDLWGQGTLVTVSSGGGSGGGSEVQLVESGGGLVQPGGSLRLSCAASGFSFSSSYWICWVRQAPGKGLEWVGCVFTGDGTTYYASWAKGRFTISRDNSKNTVYLQMNSLRAEDTATYFCARPVSVYYYGMDLWGQGTLVTVSS	IC50 (read off the curve) [1]: ~2 nM; IC50 [2]: 0.167 µg/mL; EC50, NFkB reporter gene assay, HCC827 cells [3]: 0.287 nM; EC50, NFkB reporter gene assay, HCC1954 cells [3]: 0.168 nM
0.501	0.000123	245000	15.7	0.00335	no binding	0.3	6.07e-05	202000	11.5	0.0011	95800	0.868	0.000493	568000	2.71	53	PRO1558 (multispecific antibody) chain 1: DIQMTQSPSSLSASVGDRVTITCQASENIYSFLAWYQQKPGKAPKLLIYSASKLAAGVPSRFSGSGSGTDFTLTISSLQPEDFATYYCQQTNRYSNPDIYNVFGTGTKVTVLGGGGGSGGGGSGGGGSGGGGSEVQLVESGGGLVQPGGSLRLSCAASGIDFNSNYYMCWVRQAPGKGLEWIGCIYVGSHVNTYYANWAKGRFTISRDNSKNTVYLQMNSLRAEDTAVYYCATSGSSVLYFKFWGQGTLVTVSSGGGGSGGGGSDVVMTQSPSSLSASVGDRVTITCQASQIISSRSAWYQQKPGQPPKLLIYQASKLASGVPSRFSGSGSGTDFTLTISSLQPEDFATYYCQCTYIDSNFGAFGCGTKLTVLGGGSGGSDIQMTQSPSSLSASVGDRVTITCQSSQSVFSNNYLAWFQQKPGQSPKRLIYSASTLASGVPSRFSGSGSGTDFTLTISSLQPEDFATYYCLGSYACSSADCYVFGTGTKVTVLG chain 2: not shown	Kd [4]: 7.95 nM; koff [7]: 0.00496 s⁻¹; kon [10]: 315000 M⁻¹ s⁻¹
0.498	0.00012	240000	18.7	0.00356	no binding	0.318	6.35e-05	200000	11.2	0.00107	95600	0.931	0.000514	552000	0.391	82	PRO1557 (multispecific antibody) chain 1: not shown chain 2: DIQMTQSPSSLSASVGDRVTITCQASENIYSFLAWYQQKPGKAPKLLIYSASKLAAGVPSRFSGSGSGTDFTLTISSLQPEDFATYYCQQTNRYSNPDIYNVFGTGTKVTVLGGGGGSGGGGSGGGGSGGGGSEVQLVESGGGLVQPGGSLRLSCAASGIDFNSNYYMCWVRQAPGKGLEWIGCIYVGSHVNTYYANWAKGRFTISRDNSKNTVYLQMNSLRAEDTAVYYCATSGSSVLYFKFWGQGTLVTVSSGGGGSGGGGSEVQLVESGGGLVQPGGSLRLSCAASGFSLSSYDMSWVRQAPGKGLAWIGASYASGPTYYASWAKGRFTISRDNSKNTVYLQMNSLRAEDTATYFCARGGWTGTSHSNIWGQGTLVTVSSGGGSGGGSEVQLVESGGGLVQPGGSLRLSCAASGFSFSSSYWICWVRQAPGKCLEWVGCVFTGDGTTYYASWAKGRFTISRDNSKNTVYLQMNSLRAEDTATYFCARPVSVYYYGMDLWGQGTLVTVSS	koff [11]: 0.00529 s⁻¹; target cell killing IC50, 16 h, HCC1954 cells [12]: 0.00279 nM; target cell killing IC50, 16 h, MCF-7 cells [12]: 0.0181 nM; Kd [13]: 8.43 nM; kon [14]: 283000 M⁻¹ s⁻¹; IC50, NFAT reporter, HCC1954 cells, + PRO1434 [9]: 0.671 nM; IC50, NFAT reporter, HCC1954 cells, + nivolumab [9]: 0.319 nM
